Measured values taken from the supplement of paper PMC9112550, “Optimization of the antimicrobial peptide Bac7 by deep mutational scanning” (BMC Biology, 2022).

What follows are sequences tested on Escherichia coli TOP10 (assay: shrunken log2 fold change of peptide-encoding DNA abundance (4.5 h post-induction vs induction); higher = less antimicrobial activity (less host growth inhibition)). Conditions: time post-induction: 4.5 h; library: site-saturation at positions 5, 18, 19, 20.
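Further: peptides expressed intracellularly from a pBAD plasmid library in pooled LB shake-flask culture, induced with 0.3% L-arabinose, DNA abundance read by NGS, three biological replicates, DESeq2 with apeglm shrinkage.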

Row | Sequence | shrunken log2 fold change
1 | RRIRIRPPRLPRPRPRPRIDPRP | -0.0642
2 | RRIRIRPPRLPRPRPRPRIEPRP | -0.246
3 | RRIRIRPPRLPRPRPRPRIQPRP | -0.275
4 | RRIRIRPPRLPRPRPRPRKGPRP | 0.05
5 | RRIRIRPPRLPRPRPRPRNEPRP | 0.227
6 | RRIRIRPPRLPRPRPRPRNMPRP | -0.243
7 | RRIRIRPPRLPRPRPRPRNSPRP | 0.0503
8 | RRIRIRPPRLPRPRPRPRNTPRP | -0.208
9 | RRIRIRPPRLPRPRPRPRNVPRP | -0.247
10 | RRIRIRPPRLPRPRPRPRRQPRP | 0.0868
11 | RRIRIRPPRLPRPRPRPRTCPRP | -0.282
12 | RRIRIRPPRLPRPRPRPRTKPRP | 0.161
13 | RRIRIRPPRLPRPRPRPRVCPRP | 0.00058
14 | RRIRIRPPRLPRPRPRPRVKPRP | -0.0816
15 | RRIRIRPPRLPRPRPRPRYDPRP | -0.285
16 | RRIRIRPPRLPRPRPRPRYKPRP | -0.593
17 | RRIRIRPPRLPRPRPRPSAEPRP | -0.0944
18 | RRIRIRPPRLPRPRPRPSDIPRP | -0.366
19 | RRIRIRPPRLPRPRPRPSEFPRP | -0.177
20 | RRIRIRPPRLPRPRPRPSFWPRP | 0.059
21 | RRIRIRPPRLPRPRPRPSIEPRP | -0.407
22 | RRIRIRPPRLPRPRPRPSIIPRP | -0.866
23 | RRIRIRPPRLPRPRPRPSIKPRP | -0.64
24 | RRIRIRPPRLPRPRPRPSIMPRP | -0.469
25 | RRIRIRPPRLPRPRPRPSISPRP | -0.046

Row | Sequence | shrunken log2 fold change
26 | RRIRIRPPRLPRPRPRPSKCPRP | -0.788
27 | RRIRIRPPRLPRPRPRPSLWPRP | 0.211
28 | RRIRIRPPRLPRPRPRPSNEPRP | -0.945
29 | RRIRIRPPRLPRPRPRPSNWPRP | -0.257
30 | RRIRIRPPRLPRPRPRPSPWPRP | -0.34
31 | RRIRIRPPRLPRPRPRPSQAPRP | -0.244
32 | RRIRIRPPRLPRPRPRPSQNPRP | -0.766
33 | RRIRIRPPRLPRPRPRPSRKPRP | -0.148
34 | RRIRIRPPRLPRPRPRPSSAPRP | -0.666
35 | RRIRIRPPRLPRPRPRPSSGPRP | -0.219
36 | RRIRIRPPRLPRPRPRPSSHPRP | -1.02
37 | RRIRIRPPRLPRPRPRPSTLPRP | -0.726
38 | RRIRIRPPRLPRPRPRPSTPPRP | -0.373
39 | RRIRIRPPRLPRPRPRPSVWPRP | -0.221
40 | RRIRIRPPRLPRPRPRPSWFPRP | -0.529
41 | RRIRIRPPRLPRPRPRPSWNPRP | -0.49
42 | RRIRIRPPRLPRPRPRPSYKPRP | -1.42
43 | RRIRIRPPRLPRPRPRPTCCPRP | 0.111
44 | RRIRIRPPRLPRPRPRPTCKPRP | -0.466
45 | RRIRIRPPRLPRPRPRPTEGPRP | 0.00534
46 | RRIRIRPPRLPRPRPRPTFAPRP | -0.176
47 | RRIRIRPPRLPRPRPRPTFDPRP | -0.188
48 | RRIRIRPPRLPRPRPRPTFEPRP | 0.168
49 | RRIRIRPPRLPRPRPRPTFRPRP | -0.261
50 | RRIRIRPPRLPRPRPRPTFYPRP | -0.462

Row | Sequence | shrunken log2 fold change
51 | RRIRIRPPRLPRPRPRPTGSPRP | 0.087
52 | RRIRIRPPRLPRPRPRPTGVPRP | 0.039
53 | RRIRIRPPRLPRPRPRPTIDPRP | -0.356
54 | RRIRIRPPRLPRPRPRPTILPRP | -0.248
55 | RRIRIRPPRLPRPRPRPTKWPRP | -0.15
56 | RRIRIRPPRLPRPRPRPTLMPRP | -0.0204
57 | RRIRIRPPRLPRPRPRPTMIPRP | -0.224
58 | RRIRIRPPRLPRPRPRPTMQPRP | 0.0261
59 | RRIRIRPPRLPRPRPRPTPWPRP | 0.154
60 | RRIRIRPPRLPRPRPRPTRHPRP | 0.0172
61 | RRIRIRPPRLPRPRPRPTRTPRP | 0.22
62 | RRIRIRPPRLPRPRPRPTSFPRP | -0.11
63 | RRIRIRPPRLPRPRPRPTSLPRP | -0.14
64 | RRIRIRPPRLPRPRPRPTTNPRP | -0.463
65 | RRIRIRPPRLPRPRPRPTTYPRP | -0.868
66 | RRIRIRPPRLPRPRPRPTVDPRP | 0.11
67 | RRIRIRPPRLPRPRPRPTVFPRP | -0.237
68 | RRIRIRPPRLPRPRPRPTVMPRP | -0.0131
69 | RRIRIRPPRLPRPRPRPTVVPRP | -0.0277
70 | RRIRIRPPRLPRPRPRPTWEPRP | -0.212
71 | RRIRIRPPRLPRPRPRPTWFPRP | 0.159
72 | RRIRIRPPRLPRPRPRPTYAPRP | -0.612
73 | RRIRIRPPRLPRPRPRPVCPPRP | -0.0123
74 | RRIRIRPPRLPRPRPRPVDRPRP | 0.0811
75 | RRIRIRPPRLPRPRPRPVDTPRP | -0.282
